Test results from patent US8053627B2, “Methods for treating demyelination disorders” (University of Chicago, priority 2005, dated 2011).

B1: SOCS1: suppressor of cytokine signaling 1, Flag-tagged, expressed in oligodendrocytes from the PLP/SOCS1 transgene (protein, UniProt O35716 1-212, looked up)
Suppressor of cytokine …: MVARNQVAADNAISPAAEPRRRSEPSSSSSSSSPAAPVRPRPCPAVPAPAPGDTHFRTFRSHSDYRRITRTSALLDACGFYWGPLSVHGAHERLRAEPVGTFLVRDSRQRNCFFALSVKMASGPTSIRVHFQAGRFHLDGSRETFDCLFELLEHYVAAPRRMLGAPLRQRRVRPLQELCRQRIVAAVGRENLARIPLNPVLRDYLSSFPFQI
modifications: FLAG tag
notes: suppressor of cytokine signaling 1, Flag-tagged, expressed in oligodendrocytes from the PLP/SOCS1 transgene

Experiments:
[1] = system: Hippocampal organotypic cultures; experiment: Hippocampal organotypic cultures (HOC), in vitro model of myelination, MBP Western blot; format: cell-based; settings: 7 days; for reduction of MBP expression elicited by IFN-γ exposure: SAL at various concentrations combined with 100 U/ml IFN-γ
Protocol: HOCs, were prepared and maintained as described previously (Kunkler and Kraig (1997) J Cereb Blood Flow Metab. 17:2643), and were maintained in vitro for 7 days before use. SAL at various concentrations was combined with 100 U/ml IFN-γ and added to the HOC cultures for 7 days. […] After 7 days of 100 U/ml IFN-γ exposure, the levels of MBP decreased approximately 80% in the HOCs (FIG. 29).

PP1-GADD34 phosphatase = PP1-GADD34 phosphatase (Homo sapiens, UniProt O75807); settings: Boyce, et al. (2005); cited from earlier work
Sequence of PP1-GADD34 phosphatase (O75807 whole entry): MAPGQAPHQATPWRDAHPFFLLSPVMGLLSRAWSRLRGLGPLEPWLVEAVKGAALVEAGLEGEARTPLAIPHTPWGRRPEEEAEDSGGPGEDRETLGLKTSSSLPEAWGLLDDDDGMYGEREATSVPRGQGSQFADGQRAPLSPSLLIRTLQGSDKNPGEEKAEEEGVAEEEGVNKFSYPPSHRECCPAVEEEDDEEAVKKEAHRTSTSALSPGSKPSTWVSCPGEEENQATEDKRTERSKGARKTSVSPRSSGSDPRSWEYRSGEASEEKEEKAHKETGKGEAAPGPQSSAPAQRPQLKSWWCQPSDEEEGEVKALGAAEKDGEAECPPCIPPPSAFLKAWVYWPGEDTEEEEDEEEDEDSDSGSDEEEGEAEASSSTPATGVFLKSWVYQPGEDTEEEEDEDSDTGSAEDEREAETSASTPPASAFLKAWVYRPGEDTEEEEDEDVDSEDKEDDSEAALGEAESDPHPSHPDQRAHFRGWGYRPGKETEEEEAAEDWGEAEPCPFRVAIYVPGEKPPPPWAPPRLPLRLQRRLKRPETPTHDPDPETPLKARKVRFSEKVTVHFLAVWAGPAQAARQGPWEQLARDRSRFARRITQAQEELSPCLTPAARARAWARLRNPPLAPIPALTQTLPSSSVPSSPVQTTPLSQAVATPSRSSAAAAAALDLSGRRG

cells = settings: Boyce, et al. (2005); cited from earlier work
[2] = system: oligodendrocytes and myelin; experiment: IFN-γ-overexpressing mice crossed to PLP/SOCS1 mice, clinical and histological evaluation at postnatal day 21; format: in vivo; settings: for Incidence of tremor: ten mice per group; for oligodendrocyte density: corpus callosum, postnatal day 21
Protocol: IFN-γ-overexpressing mice were crossed to the PLP/SOCS1 mice in double-transgenic, (MBP/IFN-γ×PLP/SOCS1) and triple-transgenic (GFAP/tTA×TRE/IFN-γ×PLP/SOCS1) mating systems. MBP/IFN-γ×PLP/SOCS1 (172×PLP/SOCS1) mating was performed according to a standard mating protocol. The GFAP/tTA×TRE/IFN-γ×PLP/SOCS1 matings were performed in a 2-step mating process: GFAP/tTA mice were initially crossed to PLP/SOCS1 mice, and double-positive (184×PLP/SOCS1) offspring were then crossed to the TRE/IFN-γ lines 110 and 67, separately. This second mating step was performed according to the previously described “tet-off” protocol. Doxycycline 0.05 mg/ml (Sigma-Aldich) was added to the water of impregnated female mice until embryonic day 14, after which the animals were switched back to normal water, thereby allowing initiation of IFN-γ transcription, which peaks during the postnatal period (Lin et al., 2005).
The litters of the mating systems (F1 generation) were examined daily and sacrificed at postnatal day 21. Clinical evaluation included behavioral observation and challenged ladder walking to elicit tremor. Histological examination included quantitation of the number and density of oligodendrocytes and examination of the myelination patterns. Brain tissue was simultaneously obtained from each animal at the time of sacrifice to verify and measure the expression of IFN-γ and Flag-SOCS1 (see below). The clinical and histological findings were subsequently stratified according to genotype. All animal procedures were conducted in compliance with the National Institutes of Health Guide for Care and Use of Laboratory Animals and were approved by the Institutional Animal Care and Use Committee at The University of Chicago.
Oligodendrocyte cell density was assessed digitally using Axiovision software, at postnatal day 21, as previously described (Lin et al., 2005). The brains were sectioned sagittally through the corpus callosum dividing the brain in two symmetrical halves. Ten frozen sections from each half were prepared at 7 μm thickness, and numbered in the sequence of their preparation. The brains of three animals per study group were prepared in this fashion. Following the CC1 immunostaining the corresponding area of corpus callosum of each section was digitally selected and the corresponding total area obtained. CC1 cell counting was performed manually within the selected areas of each section, and the number of CC1 positive cells per square area (mm^2) calculated. The results were presented as mean±SD of CC1 (+) cells/mm^2 with n=3 animals per study group.
Myelination patterns of the examined animals were assessed at postnatal day 21 by calculating the percent unmyelinated axons and ratio of the axon/fiber diameters (G ratio) with Image J software (National Institutes of Health, Bethesda, Md.) as previously described (Lin at al., 2005). The brains were sectioned sagittally through the corpus callosum dividing the brain in two symmetrical halves. Approximately 2 mm^3 samples from the genu and the splenum of both halves of corpus callosum were obtained using a Wild M3C stereotype microscope. The orientation of the specimen in the resin blocks yielding axonal cross-sections (well seen myelin rings) was chosen, and established by toluedine blue staining of a few sample sections. The resin blocks with the chosen orientation were processed for electron microscope examination. Randomly selected areas were examined and ten representative pictures from both genu and splenum corpus callosum were obtained at 12000× magnification. The number of unmyelinated axons was assessed by manual counting of axons that lacked myelin and were encircled solely by their own plasma membrane. All unmyelinated axons present in the representative images were counted, and their percentage calculated by examining a total of five hundred axons per tissue sample. […]

Molecule	reduction of MBP expression elicited by IFN-γ exposure [1]	reduction of MBP expression elicited by IFN-γ exposure ([1]; listed as Sal)	MBP expression ([1]; SAL treatment alone)	PP1-GADD34 phosphatase activity (PP1-GADD34 phosphatase)	protection of cells from ER stress and viral infection (cells)	Incidence of tremor ([2]; 172 × PLP/SOCS1 littermates)	oligodendrocyte density ([2]; 184/67 system)	Incidence of tremor ([2]; 184/67 × PLP/SOCS1 littermates)	oligodendrocyte density ([2]; 184/110 system)	Incidence of tremor ([2]; 184/110 × PLP/SOCS1 littermates)	MHC class I molecule expression (immunostaining) ([2]; MBP/IFN-γ and MBP/IFN-γ×PLP/SOCS1 brains)
O=C(/C=C/c1ccccc1)NC(NC(=S)Nc1cccc2cccnc12)C(Cl)(Cl)Cl (centres unmarked) [SAL, salubrinal]	markedly attenuated	attenuating effect	did not affect	specifically inhibits	protects cells from ER stress and viral infection						
B1						0%	142±5 CC1 (+) cells/mm^2	0%	141±6 CC1 (+) cells/mm^2	0%	did not express detectable levels
